Where a chain is given by its changes, count along the chain named. Blank lines part the entries; values can stand above or below the binder they belong to.
What was measured:
Recombinant Human IL-1β = Recombinant Human IL-1β (human, UniProt P01584 117-269); assay: cell-based or functional assay
Recombinant Human IL-17 = biological target: T1, Recombinant Human IL-17 (human, UniProt Q16552 20-155, limits assumed); assay: cell-based or functional assay
T1 sequence (looked up): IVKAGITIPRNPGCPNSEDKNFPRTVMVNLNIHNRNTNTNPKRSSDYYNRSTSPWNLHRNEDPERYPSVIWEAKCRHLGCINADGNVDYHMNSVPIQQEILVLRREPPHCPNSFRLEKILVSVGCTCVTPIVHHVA

N-Terminal VD IL-1β Neutralization Assay EC50 (Recombinant Human IL-1β): 0.326 nM
C-terminal VD IL-17 Neutralization Assay EC50 (Recombinant Human IL-17): 0.0008 nM
B1: DVD1597 (bispecific antibody, human IgG1, kappa)
heavy: not shown
light: ETTVTQSPSSLSASVGDRVTITCITSTDIDVDMNWYQQKPGKPPKLLISQGNTLRPGVPSRFSSSGSGTDFTFTISSLQPEDFATYYCLQSDNLPLTFGQGTKLEIKRTVAAPSVFIFPPDIQMTQSPSSLSASVGDRVTITCRASSGIISYIDWFQQKPGKAPKRLIYATFDLASGVPSRFSGSGSGTDYTLTISSLQPEDFATYYCRQVGSYPETFGQGTKLEIKRTVAAPSVFIFPPSDEQLKSGTASVVCLLNNFYPREAKVQWKVDNALQSGNSQESVTEQDSKDSTYSLSSTLTLSKADYEKHKVYACEVTHQGLSSPVTKSFNRGEC

N-Terminal VD IL-1β Neutralization Assay EC50 (Recombinant Human IL-1β): 0.0803 nM
C-terminal VD IL-17 Neutralization Assay EC50 (Recombinant Human IL-17): 0.0407 nM
B2: DVD1603 (bispecific antibody, human IgG1, kappa)
heavy: not shown
light: DTQVTQSPSSLSASVGDRVTITCITSTDIDVDMNWYQQKPGKPPKLLISQGNTLRPGVPSRFSSSGSGTDFTFTISSLQPEDFATYYCLQSDNLPLTFGQGTKLEIKRTVAAPSVFIFPPEIVLTQSPDFQSVTPKEKVTITCRASQDIGSELHWYQQKPDQPPKLLIKYASHSTSGVPSRFSGSGSGTDFTLTINGLEAEDAGTYYCHQTDSLPYTFGPGTKVDIKRTVAAPSVFIFPPSDEQLKSGTASVVCLLNNFYPREAKVQWKVDNALQSGNSQESVTEQDSKDSTYSLSSTLTLSKADYEKHKVYACEVTHQGLSSPVTKSFNRGEC

N-Terminal VD IL-1β Neutralization Assay EC50 (Recombinant Human IL-1β): 0.455 nM
C-terminal VD IL-17 Neutralization Assay EC50 (Recombinant Human IL-17): 0.0031 nM
B3: DVD1607 (bispecific antibody, human IgG1, kappa)
heavy: not shown
light: B2 light with D1E, Q3T

N-Terminal VD IL-1β Neutralization Assay EC50 (Recombinant Human IL-1β): 0.0048 nM
C-terminal VD IL-17 Neutralization Assay EC50 (Recombinant Human IL-17): 0.0504 nM
B4: DVD1599 (bispecific antibody, human IgG1, kappa)
heavy: not shown
light: DIQMTQSPSSLSASVGDRVTITCRASGNIHNYLTWYQQTPGKAPKLLIYNAKTLADGVPSRFSGSGSGTDYTFTISSLQPEDIATYYCQHFWSIPYTFGQGTKLQITRTVAAPSVFIFPPEIVLTQSPDFQSVTPKEKVTITCRASQDIGSELHWYQQKPDQPPKLLIKYASHSTSGVPSRFSGSGSGTDFTLTINGLEAEDAGTYYCHQTDSLPYTFGPGTKVDIKRTVAAPSVFIFPPSDEQLKSGTASVVCLLNNFYPREAKVQWKVDNALQSGNSQESVTEQDSKDSTYSLSSTLTLSKADYEKHKVYACEVTHQGLSSPVTKSFNRGEC

N-Terminal VD IL-1β Neutralization Assay EC50 (Recombinant Human IL-1β): 0.0038 nM
C-terminal VD IL-17 Neutralization Assay EC50 (Recombinant Human IL-17): 0.173 nM
B5: DVD1609 (bispecific antibody, human IgG1, kappa)
heavy: not shown
light: B4 light with D148N, P163S, T175I, G204A, T211S, S213T, Y216H, P220Q

N-Terminal VD IL-1β Neutralization Assay EC50 (Recombinant Human IL-1β): 0.0036 nM
C-terminal VD IL-17 Neutralization Assay EC50 (Recombinant Human IL-17): 0.0264 nM
B6: DVD1601 (bispecific antibody, human IgG1, kappa)
heavy: not shown
light: B4 light

C-Terminal VD IL-1β Neutralization Assay EC50 (Recombinant Human IL-1β): 11.9 nM
N-terminal VD IL-17 Neutralization Assay EC50 (Recombinant Human IL-17): 0.0053 nM
B7: DVD1598 (bispecific antibody, human IgG1, kappa)
heavy: not shown
light: DIQMTQSPSSLSASVGDRVTITCRASSGIISYIDWFQQKPGKAPKRLIYATFDLASGVPSRFSGSGSGTDYTLTISSLQPEDFATYYCRQVGSYPETFGQGTKLEIKRTVAAPSVFIFPPETTVTQSPSSLSASVGDRVTITCITSTDIDVDMNWYQQKPGKPPKLLISQGNTLRPGVPSRFSSSGSGTDFTFTISSLQPEDFATYYCLQSDNLPLTFGQGTKLEIKRTVAAPSVFIFPPSDEQLKSGTASVVCLLNNFYPREAKVQWKVDNALQSGNSQESVTEQDSKDSTYSLSSTLTLSKADYEKHKVYACEVTHQGLSSPVTKSFNRGEC

C-Terminal VD IL-1β Neutralization Assay EC50 (Recombinant Human IL-1β): 2.03 nM
N-terminal VD IL-17 Neutralization Assay EC50 (Recombinant Human IL-17): 0.0031 nM
B8: DVD1604 (bispecific antibody, human IgG1, kappa)
heavy: not shown
light: EIVLTQSPDFQSVTPKEKVTITCRASQDIGSELHWYQQKPDQPPKLLIKYASHSTSGVPSRFSGSGSGTDFTLTINGLEAEDAGTYYCHQTDSLPYTFGPGTKVDIKRTVAAPSVFIFPPDTQVTQSPSSLSASVGDRVTITCITSTDIDVDMNWYQQKPGKPPKLLISQGNTLRPGVPSRFSSSGSGTDFTFTISSLQPEDFATYYCLQSDNLPLTFGQGTKLEIKRTVAAPSVFIFPPSDEQLKSGTASVVCLLNNFYPREAKVQWKVDNALQSGNSQESVTEQDSKDSTYSLSSTLTLSKADYEKHKVYACEVTHQGLSSPVTKSFNRGEC

C-Terminal VD IL-1β Neutralization Assay EC50 (Recombinant Human IL-1β): 4.25 nM
N-terminal VD IL-17 Neutralization Assay EC50 (Recombinant Human IL-17): 0.0082 nM
B9: DVD1608 (bispecific antibody, human IgG1, kappa)
heavy: not shown
light: B8 light with D121E, Q123T

C-Terminal VD IL-1β Neutralization Assay EC50 (Recombinant Human IL-1β): 1.63 nM
N-terminal VD IL-17 Neutralization Assay EC50 (Recombinant Human IL-17): 0.0188 nM
B10: DVD1606 (bispecific antibody, human IgG1, kappa)
heavy: not shown
light: EIVLTQSPDFQSVTPKEKVTITCRASQDIGSELHWYQQKPDQPPKLLIKYASHSTSGVPSRFSGSGSGTDFTLTINGLEAEDAGTYYCHQTDSLPYTFGPGTKVDIKRTVAAPSVFIFPPDTVVTQSPAFLSVTPGEKVTITCITSTDIDVDMNWYQQKPDQPPKLLISQGNTLRPGVPSRFSSSGSGTDFTFTISSLEAEDAATYYCLQSDNLPLTFGQGTKLEIKRTVAAPSVFIFPPSDEQLKSGTASVVCLLNNFYPREAKVQWKVDNALQSGNSQESVTEQDSKDSTYSLSSTLTLSKADYEKHKVYACEVTHQGLSSPVTKSFNRGEC

N-Terminal VD IL-1β Neutralization Assay EC50 (Recombinant Human IL-1β): 0.242 nM
C-terminal VD IL-17 Neutralization Assay EC50 (Recombinant Human IL-17): 0.0082 nM
B11: DVD1605 (bispecific antibody, human IgG1, kappa)
heavy: not shown
light: DTVVTQSPAFLSVTPGEKVTITCITSTDIDVDMNWYQQKPDQPPKLLISQGNTLRPGVPSRFSSSGSGTDFTFTISSLEAEDAATYYCLQSDNLPLTFGQGTKLEIKRTVAAPSVFIFPPEIVLTQSPDFQSVTPKEKVTITCRASQDIGSELHWYQQKPDQPPKLLIKYASHSTSGVPSRFSGSGSGTDFTLTINGLEAEDAGTYYCHQTDSLPYTFGPGTKVDIKRTVAAPSVFIFPPSDEQLKSGTASVVCLLNNFYPREAKVQWKVDNALQSGNSQESVTEQDSKDSTYSLSSTLTLSKADYEKHKVYACEVTHQGLSSPVTKSFNRGEC

C-Terminal VD IL-1β Neutralization Assay EC50 (Recombinant Human IL-1β): 0.794 nM
N-terminal VD IL-17 Neutralization Assay EC50 (Recombinant Human IL-17): 0.0055 nM
B12: DVD1600 (bispecific antibody, human IgG1, kappa)
heavy: not shown
light: EIVLTQSPDFQSVTPKEKVTITCRASQDIGSELHWYQQKPDQPPKLLIKYASHSTSGVPSRFSGSGSGTDFTLTINGLEAEDAGTYYCHQTDSLPYTFGPGTKVDIKRTVAAPSVFIFPPDIQMTQSPSSLSASVGDRVTITCRASGNIHNYLTWYQQTPGKAPKLLIYNAKTLADGVPSRFSGSGSGTDYTFTISSLQPEDIATYYCQHFWSIPYTFGQGTKLQITRTVAAPSVFIFPPSDEQLKSGTASVVCLLNNFYPREAKVQWKVDNALQSGNSQESVTEQDSKDSTYSLSSTLTLSKADYEKHKVYACEVTHQGLSSPVTKSFNRGEC

C-Terminal VD IL-1β Neutralization Assay EC50 (Recombinant Human IL-1β): 1 nM
N-terminal VD IL-17 Neutralization Assay EC50 (Recombinant Human IL-17): 0.0046 nM
B13: DVD1610 (bispecific antibody, human IgG1, kappa)
heavy: not shown
light: B12 light with D28N, P43S, T55I, G84A, T91S, S93T, Y96H, P100Q

C-Terminal VD IL-1β Neutralization Assay EC50 (Recombinant Human IL-1β): 0.133 nM
N-terminal VD IL-17 Neutralization Assay EC50 (Recombinant Human IL-17): 0.0033 nM
B14: DVD1602 (bispecific antibody, human IgG1, kappa)
heavy: not shown
light: B12 light
